Results taken from publication PMC3922039.

Molecular target: Mboumar-9 transposase (T216A) (Messor bouvieri)
Test: SEC; analytical size-exclusion chromatography of DNA-free transposase on Superdex 200 at 4 °C; 5.7 uM in 50 uL of 20 mM PIPES pH 6.8, 500 mM NaCl, 5 mM MgCl2, 1 mM DTT; flow 0.5 mL/min

stoichiometry N: 2
Substance: Mboumar-9 transposase (T216A) (enzyme)
